Literature values in paper PMC6525395.
pKd: −log10 of the molar value.

Biological target: IL-6Rα (Homo sapiens) (UniProt P08887)
Sequence of UniProt P08887 (P08887 20-355): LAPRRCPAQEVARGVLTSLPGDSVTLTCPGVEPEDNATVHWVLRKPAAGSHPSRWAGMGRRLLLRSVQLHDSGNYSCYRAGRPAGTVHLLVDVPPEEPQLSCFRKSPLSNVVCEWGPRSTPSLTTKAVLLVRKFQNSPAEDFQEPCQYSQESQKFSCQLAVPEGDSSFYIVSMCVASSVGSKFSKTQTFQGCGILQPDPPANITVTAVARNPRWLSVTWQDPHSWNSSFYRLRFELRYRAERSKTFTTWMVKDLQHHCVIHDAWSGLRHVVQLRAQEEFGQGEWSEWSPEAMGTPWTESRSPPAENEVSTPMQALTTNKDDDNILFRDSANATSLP

- pKd: 9.30
Substance: IL-6 (from UniProt P05231)
